This passage reports fold binding over scrambled peptide control and fold binding compared to scrambled peptide results from patent US20120088722A1.

The target in assay [1] is hypertrophic cartilage tissue extract. As to the kind of experiment: fluorescent peptide (100 nM) binding to plate-dried cartilage CHAPS extract, reference scrambled peptide.
The target of assay [2] is resting cartilage tissue extract. The description is as above.
Assay [3] addresses extracellular matrix of whole cell primary chondrocyte cultures. As to the kind of experiment: fluorescent peptide binding to extracellular matrix of hypertrophic chondrocyte monolayer cultures, reference scrambled peptide.

Ends that are not written are not given here. Where only a bound is given, the exact number is not on record here.

For the molecule LRGETMIFKD (also: fluorescent label (label and position not given here)) [MMP13-10 peptide (amino acids 17-26 of SEQ ID NO: 1)], the fold binding over scrambled peptide control in assay [1] and in assay [2] was less than 2 fold in each case. This molecule returned a fold binding compared to scrambled peptide in assay [3] of 4 fold.
With ELGLPKEVKKISAAVHFED (also: fluorescent-labeled in binding assay, label and position not given here) [MMP13-19 peptide (amino acids 93-111 of SEQ ID NO: 1)], the fold binding over scrambled peptide control was 9 fold in assay [1] and 5 fold in assay [2]. In addition, in assay [3], the fold binding compared to scrambled peptide amounted to 8 fold.
